# From US20130122591
# Legend:
# Experiment in all cases: cell_activity
# [1] = tested on: TALEN 101288 (engineered)
# [2] = tested on: TALEN 101278 (engineered)
# [3] = tested on: TALEN 101272 (engineered); settings: pair with 101271, K562, 1600 ng, day 3
# [4] = tested on: TALEN 101282 (engineered); settings: pair with 101288, K562, 1600 ng, day 3
# ZFN 29223 (engineered) = tested on: ZFN 29223 (engineered)
# [5] = tested on: TALEN 101270 (engineered); settings: pair with 101267, K562, 1600 ng, day 3
# ZFN 29250 (engineered) = tested on: ZFN 29250 (engineered)
# [6] = tested on: TALEN 101284 (engineered)
# ZFN 29216 (engineered) = tested on: ZFN 29216 (engineered)
# ZFN 30179 (engineered) = tested on: ZFN 30179 (engineered)
# ZFN 29251 (engineered) = tested on: ZFN 29251 (engineered)
# [7] = tested on: TALEN 101271 (engineered); settings: pair with 101272, K562, 1600 ng, day 3
# [8] = tested on: TALEN 101276 (engineered)
# [9] = tested on: TALEN 101267 (engineered); settings: pair with 101270, K562, 1600 ng, day 3
# [10] = tested on: TALEN 101286 (engineered); settings: pair with 101284, K562, 1600 ng, day 3
substance,measurement,setting,value
TGGATCTATCACTATTT (double strand) [101288 site],activity,"[1]; pair with 101284, K562, 1600 ng, day 3",62.2 % NHEJ
same,activity,"[1]; pair with 101284, rhesus LLC-MK2",8.7 % NHEJ
TGGCCTCCCATCTCCT (double strand) [101278 site],activity,"[2]; pair with 101276, K562, 1600 ng, day 3",35.3 % NHEJ
same,activity,"[2]; pair with 101276, rhesus LLC-MK2",7.6 % NHEJ
TGGGCCTGAACCGGCC (double strand) [101272 site],activity,[3],19.1 % NHEJ
TTTGCTGACCTGCTGGAT (double strand) [101282 site],activity,[4],46.2 % NHEJ
AAGCACTGAATAGAAATAGTGATAGATC (double strand) [29223 site],activity,"ZFN 29223 (engineered); pair with 29216, rhesus LLC-MK2, printed as 29233",2.7 % NHEJ
TGCTCACCACGAC (double strand) [101270 site],activity,[5],31.8 % NHEJ
ATCTCGAGCAAGACGTTCAGTCCTACAG (double strand) [29250 site],activity,"ZFN 29250 (engineered); pair with 29251, K562, 800 ng, day 3",69.2 % NHEJ
same,activity,"ZFN 29250 (engineered); pair with 29251, rhesus LLC-MK2 (sites stated conserved)",8.2 % NHEJ
TTGCTGACCTGCTGGATT (double strand) [101284 site],activity,"[6]; pair with 101288, K562, 1600 ng, day 3",62.2 % NHEJ
same,activity,"[6]; pair with 101288, rhesus LLC-MK2",8.7 % NHEJ
"canine HPRT locus, other sites",activity,"[1]; pair with 101284, canine D17, 100 ng",25.1 % NHEJ
same,activity,"[2]; pair with 101276, canine D17, 200 ng, 0 at 100 and 400 ng",2.5 % NHEJ
same,activity,"ZFN 29223 (engineered); pair with 29216, canine D17",0 % NHEJ
same,activity,"[6]; pair with 101288, canine D17, 100 ng",25.1 % NHEJ
same,activity,"ZFN 29216 (engineered); pair with 29223, canine D17",0 % NHEJ
same,activity,"ZFN 30179 (engineered); pair with 29250, canine D17, 100 ng",9.2 % NHEJ
same,activity,"ZFN 29251 (engineered); pair with 29250, canine D17, 200 ng, 0 at 100 and 400 ng",2.8 % NHEJ
TGGCGTCGTGGTGAGC (double strand) [101271 site],activity,[7],19.1 % NHEJ
TGTAGGACTGAACGTCTT (double strand) [101276 site],activity,"[8]; pair with 101278, K562, 1600 ng, day 3",35.3 % NHEJ
same,activity,"[8]; pair with 101278, rhesus LLC-MK2",7.6 % NHEJ
AACTTTTGTTAAATTCCTGATTTTATTTCTGTAGGACTGAGCGGCTTGCTCGAGATGTG (double strand) [canine HPRT region (29250/101276 site)],activity,"ZFN 29250 (engineered); pair with 30179, canine D17, 100 ng",9.2 % NHEJ
same,activity,"[8]; pair with 101278, canine D17, 200 ng, 0 at 100 and 400 ng",2.5 % NHEJ
ATGTAATCCAGCAGGTCAGCAAAGAATT (double strand) [29216 site],activity,"ZFN 29216 (engineered); pair with 29223 (printed 29233), rhesus LLC-MK2",2.7 % NHEJ
TCCGTTATGGCGAC (double strand) [101267 site],activity,[9],31.8 % NHEJ
TCTATCACTATTTCTAT (double strand) [101286 site],activity,[10],35.3 % NHEJ
TGATGAAGGAGATGGGAGGCCATCACAT (double strand) [29251/30179 site],activity,"ZFN 30179 (engineered); pair with 29250, rhesus LLC-MK2",0 % NHEJ
same,activity,"ZFN 29251 (engineered); pair with 29250, K562, 800 ng, day 3",69.2 % NHEJ
same,activity,"ZFN 29251 (engineered); pair with 29250, rhesus LLC-MK2 (sites stated conserved)",8.2 % NHEJ
